Data as given in patent US7173007.

System: recombinant human cathelin-like protein (cathelin-like domain of hCAP18, residues 31-131), after removal of the N-terminal tag with enterokinase
Sequence (chain, as listed by the source): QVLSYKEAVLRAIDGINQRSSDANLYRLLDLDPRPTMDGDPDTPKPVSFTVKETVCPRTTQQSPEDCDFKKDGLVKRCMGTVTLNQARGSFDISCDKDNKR

Sequence of human liver cathepsin L (Calbiochem) (chain, as listed by the source): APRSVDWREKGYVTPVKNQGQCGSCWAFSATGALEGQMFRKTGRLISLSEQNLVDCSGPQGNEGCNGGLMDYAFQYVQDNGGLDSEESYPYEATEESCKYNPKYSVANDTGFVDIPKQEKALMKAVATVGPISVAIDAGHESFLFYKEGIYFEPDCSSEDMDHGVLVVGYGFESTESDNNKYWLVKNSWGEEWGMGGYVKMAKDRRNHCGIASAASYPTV

**Q.** Which results are given for human liver cathepsin L (Calbiochem)?
**A.** hydrolysis of Z-Phe-Arg-AMC by cathepsin L alone and with cathelin-like protein: Data demonstrate inhibition of cathepsin L by the addition of cathelin-like recombinant protein; slope of fluorescence generation (Z-Phe-Arg-AMC hydrolysis) with cathelin-like protein; cathepsin L alone gave 1.31: slope=1.31 vs 0.71, respectively
